# Assay results published in PMC9371921, “Strand annealing and motor driven activities of SMARCAL1 and ZRANB3 are stimulated by RAD51 and the paralog complex” (Nucleic Acids Research, 2022).
# Substitutions are numbered along the chain they refer to.
# B1: MBP-RAD51 (natural protein, human, UniProt Q06609 1-339, looked up)
# chain: MAMQMQLEANADTSVEEESFGPQPISRLEQCGINANDVKKLEEAGFHTVEAVAYAPKKELINIKGISEAKADKILAEAAKLVPMGFTTATEFHQRRSEIIQITTGSKELDKLLQGGIETGSITEMFGEFRTGKTQICHTLAVTCQLPIDRGGGEGKAMYIDTEGTFRPERLLAVAERYGLSGSDVLDNVAYARAFNTDHQTQLLYQASAMMVESRYALLIVDSATALYRTDYSGRGELSARQMHLARFLRMLLRLADEFGVAVVITNQVVAQVDGAAMFAADPKKPIGGNIIAHASTTRLYLRKGRGETRICKIYDSPCLPEAEAMFAINADGVGDAKD
# notes: In the pull-downs the MBP tag was kept; the RAD51 of the DNA annealing assays was the same construct with the MBP cut off by PreScission protease and purified on HiTrap Q; not shown: MBP, N-terminal, kept
# Columns and labels:
# [1] = biological target: T1, SMARCAL1 F439 F→A variant (human, UniProt Q9NZC9 1-954, F439 (F→A variant)); experiment: pull-down; MBP-RAD51 (bait) from bacterial soluble extract bound to amylose resin and washed; purified FLAG-SMARCAL1, FLAG-ZRANB3 or FLAG-BCDX2 (1 μg, prey) in 150 μl IP buffer (25 mM Tris-HCl pH 7.5, 100 mM NaCl, 3 mM EDTA, 0.5 mM DTT, BSA, 10% glycerol), 1 h at 4°C; eluted with maltose; Western blot with anti-MBP and anti-FLAG; conditions: both partners purified
# T1 construct: human SMARCAL1 with F439 disrupted; the methods call the variants SMARCAL1 F→A variants; construct as m1; The text says only 'disruption of F439'; also called disruption of F439; source: Sf9, purified similarly as the wild type
# T1 sequence (looked up): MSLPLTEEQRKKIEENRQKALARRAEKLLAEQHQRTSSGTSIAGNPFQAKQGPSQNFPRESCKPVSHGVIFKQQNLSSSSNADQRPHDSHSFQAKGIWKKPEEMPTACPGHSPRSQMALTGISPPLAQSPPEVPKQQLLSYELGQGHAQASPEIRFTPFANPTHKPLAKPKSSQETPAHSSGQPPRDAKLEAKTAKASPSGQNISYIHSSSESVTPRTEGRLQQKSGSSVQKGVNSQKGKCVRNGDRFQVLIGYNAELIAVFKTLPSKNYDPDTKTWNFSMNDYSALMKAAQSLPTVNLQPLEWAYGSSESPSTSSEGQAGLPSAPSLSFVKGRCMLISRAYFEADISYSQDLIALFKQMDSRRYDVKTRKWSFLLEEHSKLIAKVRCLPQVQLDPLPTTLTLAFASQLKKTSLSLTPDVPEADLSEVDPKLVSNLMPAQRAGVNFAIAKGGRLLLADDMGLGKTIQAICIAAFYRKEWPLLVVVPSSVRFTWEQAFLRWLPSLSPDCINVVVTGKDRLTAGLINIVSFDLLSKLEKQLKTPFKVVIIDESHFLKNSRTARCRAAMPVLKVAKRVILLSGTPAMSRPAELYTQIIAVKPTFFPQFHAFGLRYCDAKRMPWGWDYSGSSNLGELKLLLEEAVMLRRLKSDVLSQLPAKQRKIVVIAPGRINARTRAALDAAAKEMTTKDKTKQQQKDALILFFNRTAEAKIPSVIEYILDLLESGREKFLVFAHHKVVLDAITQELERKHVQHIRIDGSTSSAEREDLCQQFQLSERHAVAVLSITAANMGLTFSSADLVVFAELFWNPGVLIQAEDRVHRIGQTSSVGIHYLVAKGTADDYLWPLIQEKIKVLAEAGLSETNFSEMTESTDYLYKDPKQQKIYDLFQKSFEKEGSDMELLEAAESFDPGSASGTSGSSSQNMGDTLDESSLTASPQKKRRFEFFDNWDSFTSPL
# [2] = biological target: T2, FLAG-SMARCAL1 (human, UniProt Q9NZC9 1-954); experiment: as above; conditions: both partners purified
# T2 construct: also called SMARCAL1-WT; SMARCAL1 wild type
# T2 sequence (looked up): T1 sequence (looked up) with A439F
binder,measurement,setting,value
B1,binding result,[1],binds
same,binding result,[2],binds
